Experimental data reported in the RNAGym collection of RNA variant scans (doi:10.1073/pnas.2313332121).
Fewer inactive variants are shown than the library holds.

B1: TPR 5TU (parent)
chain: GGAUCUUCUCGAUCUAACAAAAAAGACAAAUCUGCCACAAAGCUUGAGAGCAUCUUCGGAUGCAGAGGCGGCAGCCUUCGGUGGCGCGAUAGCGCCAACGUUCUCAACUAUGACACGCAAAACGCGUGCUCCGUUGAAUGGAGUUUAUCAUG

Variants of: B1
Test: polymerase ribozyme fitness, log enrichment relative to wild type (log ratio); higher = more active; in vitro selection for triplet polymerase activity
Method in brief: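 Frozen incubation at −7 °C formed the core of a single, triplicate in vitro selection round applied to PCR-built, transcribed mutant libraries of each subunit of a heterodimeric triplet polymerase ribozyme. Extended constructs were gel-excised, captured with streptavidin beads and amplified by RT-PCR, and input and output libraries were Illumina-sequenced with a filter of ≥10 input reads and ≥1 read per output. Fitness is the logarithm of genotype enrichment relative to wild-type enrichment, with inverse-variance-weighted replicate averaging, and the logarithm is base 2.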

Variant | polymerase ribozyme fitness (log ratio)
U101A A106C A147G | -3.14
A120G G128U | -2.36
U102C U148C | -3.19
A115G C116A U127G | ≤ -4.2
C118U G140U | -3.11
G117C A120G | 0.308
A97G C123U | 0.215
C118U U135C | -2.19
A120C G136U G140C | -4.19
A106C C114A G140C G141C | ≤ -4.2
A98U A142U | -2.98
C99G A115G C125G G136C | -3.89
C116U A142U | -0.344
U104G G141U | 0.973
A113G U134A | ≤ -4.2
A97G C131A | -2.32
A97G C131G | -3.21
A107U A110U C114U | ≤ -4.2
A115U U148G | -4.15
A97U C116U | -0.695
A110U | -3.57
A110G | -2.42
U104G U135C G143C | -3.79
C114U G140C A150C | ≤ -4.2

Variant | polymerase ribozyme fitness (log ratio)
C99U A150C | ≤ -4.2
C99U A150G | -0.552
C118A A119U | -0.617
A115C U127C | -1.1
A107C C118U | ≤ -4.2
U102C U134A | -3.46
C114U | -1.75
C114G | -2.54
C114A | -2.72
A107G C132U G133U | -3.52
C99U C125U | 0.0952
C99A C116U | -0.602
C114U A119U | -1.73
C99A C114U U135G | -3.68
U102C G136A | -0.705
A115C A142G A150U | -3.13
C116U U135A | -0.565
C108U A147C | -3.44
C114G A119G | -2.84
A115U A119G A138G | ≤ -4.2
C99G U102G U135A | ≤ -4.2
A120U U145C | -0.0409
C105G A107U U148C | ≤ -4.2
A110G C129U U144C | ≤ -4.2

Variant | polymerase ribozyme fitness (log ratio)
C118A U144A | 0.0258
C114U U135C | -2.95
A106G C116U U148C | -1.25
A97U C125A | -0.436
A98G U104G C118U | -0.702
C116U | 0.103
C116G | 0.655
C116A | 1.34
U104G A119C C123U | 0.501
C116U U130C | 1.13
U101G G136A | 0.652
U101G G136C | -2.44
A106C G141A | -0.24
A115C G133U | -3.74
U102G A121C | -2.85
U102G A121U | -2.32
A107U U145A | -2.78
C118G C129U | -1.77
A107G C118U U145A | ≤ -4.2
U102A G128U | -4.1
C114G G133A | ≤ -4.2
C103G U144A | -2.15
U101C A150G | -1.59
A113C U134C A137C G140A U148G | ≤ -4.2

Variant | polymerase ribozyme fitness (log ratio)
C118G G141A | -0.0985
U102G G124C G133A A137G G143U | ≤ -4.2
C114U C125U | -3.33
A113C C118A | ≤ -4.2
C103G G117U | -0.61
A98G A121G | -1.63
A113G A138U | -3.79
C103G U145G | -1.87
A113U G124U | -2.07
A113U G124C | -3.17
A106C C116G | -0.324
C116G A120U | 0.554
A115U G126A | -3.35
A115C C123A | -1.17
C116A U151C | -4.09
C99G G126U | -0.93
C99G G126A | -0.619
U101G G124A | 0.852
U102G U104C | ≤ -4.2
C116U G124A A142G | -2.45
A113U U146C | -1.49
U104G U134G G143A | -3.69
U101G C118A G126A | -3.59
A98U A138G | -3.32

Variant | polymerase ribozyme fitness (log ratio)
C99U U102A | -1.33
C99U G136A | 0.0423
C99U G136U | -2.25
A110U U127A | -4.06
A119C U139C | -3.46
C99G A137C A142G | -3.71
C116U A119U U135C | -2.59
A98G U101C G141U | 0.851
C116U U148A | -3.85
A97G U130G | -2.77
A98G A115G U135G | -3.81
U102G U148A | -3.81
C114U U148G | -3.06
U101A G143C | -2.08
U109G C118G U144A | -3.88
A119C G143A | -0.422
A107G C131A | -4.19
U101G A106C A113C A122G | ≤ -4.2
A97U G117U | -1.25
U109G G140U | -3.76
A98G A120G | -0.401
U109G C116G | -0.501
U109G C116A | -2.26
C99A C118G A119C | -0.582

Variant | polymerase ribozyme fitness (log ratio)
A115G G141A | -0.426
A97G G152A | -3.19
C108A G124U G140C | ≤ -4.2
U109G C114G | -3.7
C114U G136C | -3.39
C99U A147G | -2
C116U C125U U146C | -0.74
C99G C129A | -3.81
C103G C108G G124C U144A U145G | ≤ -4.2
U109G A142C | -2.18
C103G A138G | -3.66
C118G A122C | -1.49
C105G C118A | -3.26
A110C G112A G140C A142U | -4.12
A120U A137C A138U | -4.19
C99A G136A | -0.217
A107U A120G C132A A147C | ≤ -4.2
U104A | 0.0691
U104C | 0.352
U104G | -0.299
C105A A113U | ≤ -4.2
C114U G141C | -3.4
C118G A119U G141U | -0.349
A115U U134C | -1.19

Variant | polymerase ribozyme fitness (log ratio)
A97U G124U | -1.05
A98U G141U | 1.39
C99G U144A U148A | ≤ -4.2
A106G G117A | 0.816
A106G U134A | -1.28
U104C U135G | -3.31
A98G G124C | -0.819
A98U U148A | -3.03
A115G U135A | -2.48
U111C | -1.77
U111G | -4.05
U111A | -3.05
A97G G141C | -1.86
C103A A120G C131U A138U | -3.71
C116G G140C | -3.81
G100U U139G U146G | ≤ -4.2
A119U U144A | -0.171
A120G G141C A147U | -1.01
C99U C149U | -1.17
U102C A150C | -4.08
A120G A137C | -4.08
U101G A115U G117U A150C | ≤ -4.2
C103A U144G | -2.84
